12 molecules from patent US20240092908A1 (ZHEJIANG DOER BIOLOGICS, published 2024) can be followed below.

Test [1] deals with fusion protein hPD1-Fc composed of the PD-1 extracellular domain sequence and human IgG1 FC (human). In words: competitive phage ELISA on coated hPD1-Fc; competitor Bio-hPDL1-HSA. How it is done:
After washing 3 times with PBST, 100 μl of Streptavidin-HRP diluted 1:50000 (Jackson ImmunoResearch Inc) was added to each well and incubated at 37° C. for 1 hour. After washing 3 times with PBS, TMB color development working solution (Beijing ComWin Biotech Co., Ltd.) was added and incubated at room temperature for 5 minutes to develop color, then 1M sulfuric acid was added to terminate the reaction and OD450 nm reading was recorded. […] Competitive positive clones were selected for sequencing and duplicate sequences were removed.

In test [2] the target is T1, Monkey RhPD1-HSA fusion protein (monkey).
T1 construct: also called monkey PD-1
Briefly: ELISA, RhPD1-HSA coated 200 ng/well, VHH 1 µg/mL, anti-his detection. As to the method: (§1) Monkey RhPD1-HSA fusion protein (SEQ ID No. 30) was coated on plates at 200 ng/well overnight at 4° C. and blocked with 5% skim milk at room temperature for 1 hour. Purified histidine-tagged anti-PD1 single-domain antibody was diluted to 1 μg/mL and incubated at 37° C. for 1 hour with 100 μL per well. After washing with PBST 3 times, a mouse anti-his tag antibody (R&D Systems, Inc) diluted 1:5000 was added at 100 μl/well and incubated at room temperature for 1 hour. After washing with PBST, HRP-Goat anti-mouse IgG antibody (Thermo Scientific) diluted 1:10000 was added at 100 μl/well and incubated at room temperature for 1 hour. After washing with PBST, TMB color developing solution was added for color development and OD value was measured at 450 nm.
(In general: An ELISA detects its analyte on a solid surface through an enzyme-linked reagent.)

The target of test [3] is T2, mouse mPD1-HSA fusion protein (mouse).
T2 construct: also called mouse PD-1
Briefly: ELISA, mPD1-HSA coated 200 ng/well, anti-his detection. How it is done: as §1, with “Human hPD1-HSA, mouse mPD1-HSA” for “Monkey RhPD1-HSA fusion protein”, “NO: 57) or HSA (purchased from Sigma) were” for “No. 30) was”, “anti-PD-1” for “anti-PD1”, “solution (Beijing ComWin Biotech Co., Ltd.)” for “solution”

The target of test [4] is T3, fusion protein hPD1-HSA composed of a PD1 extracellular domain sequence and a human serum albumin sequence (human).
T3 construct: PD-1 extracellular domain fused to HSA; also called Human hPD1-HSA; human PD-1
Briefly: ELISA, hPD1-HSA coated 200 ng/well, VHH 1 µg/mL, anti-his detection. How it is done: as §1, with “Human hPD1-HSA, mouse mPD1-HSA” for “Monkey RhPD1-HSA fusion protein”, “NO: 57) or HSA (purchased from Sigma) were” for “No. 30) was”, “anti-PD-1” for “anti-PD1”, “solution (Beijing ComWin Biotech Co., Ltd.)” for “solution”

The target in test [5] is T4, HSA (purchased from Sigma) (human, UniProt P02768 25-609).
T4 construct: Control coat for the HSA part of hPD1-HSA; also called human serum albumin
Briefly: ELISA, HSA coated 200 ng/well, VHH 1 µg/mL, anti-his detection. As to the method: as §1, with “Human hPD1-HSA, mouse mPD1-HSA” for “Monkey RhPD1-HSA fusion protein”, “NO: 57) or HSA (purchased from Sigma) were” for “No. 30) was”, “anti-PD-1” for “anti-PD1”, “solution (Beijing ComWin Biotech Co., Ltd.)” for “solution”

B1: anti-PD1 single-domain antibody clone 1D3, displayed on recombinant phage (VHH, not shown: large carriers)
VHH: QVQLVESGGGLVQPGGSLNLSCVASGSVFIIDVMAWYRQAPGKQRELVAQIINGGATYYADSVKGRFTISRDDTKTTLYLQMNSLKPDDTAVYYCSAEKFNPYRDSTHFWGQGTQVTVSS
notes: Tested as phage supernatant in the screening ELISAs of Embodiment 2.2
Turning to B1, in test [1], the binding result is “binds”.

B2: anti-PD-1 single-domain antibody clone 1D3, histidine-tagged, from E. coli (VHH)
VHH: QVQLVESGGGLVQPGGSLNLSCVASGSVFIIDVMAWYRQAPGKQRELVAQIINGGATYYADSVKGRFTISRDDTKTTLYLQMNSLKPDDTAVYYCSAEKFNPYRDSTHFWGQGTQVTVSS
notes: Alpaca VHH expressed in E. coli Rosetta (DE3) from pET32a+, purified on a Ni column; not shown: C-terminal histidine tag
For B2, the OD450 nm in test [2] is 2.1 OD450 nm; in test [4], 2.1 OD450 nm; in test [5], 0.029 OD450 nm. Besides, the binding result in test [3] is recorded as “no binding (tested: 1 µg/mL)”.

B3: anti-PD-1 single-domain antibody clone 2C4, histidine-tagged, from E. coli (VHH)
VHH: QVQLVESGGGLVRPGGSLRLSCAASGSVFIIDVMAWYRQAPGKQRELVAQIISGDHAYYADSVKGRFTISRDDTKTTLYLQMNSLKPDDTAVYYCSAEKFNPYRDSTYFWGQGTQVTVSS
notes: as for B2
As for B3, the OD450 nm in test [2] was 2.03 OD450 nm; in test [4] it was 2.14 OD450 nm; in test [5] it was 0.022 OD450 nm. Also, the binding result in test [3] is given as “no binding (tested: 1 µg/mL)”.

B4: anti-PD-1 single-domain antibody clone 1A4, histidine-tagged, from E. coli (VHH)
VHH: QVQLVESGGGLVQPGGSLNLSCVASGNVFIIDVMAWYRQAPGKQRELVAQIINGDAKYYVDSVKGRFTISRDNTKTTLYLQMNSLKPDDTAIYYCSAEKFNPYRDSTNFWGQGTQVTVSS
notes: as for B2
On to B4, for which the OD450 nm in test [2] was determined as 2 OD450 nm; in test [4], 2.13 OD450 nm; in test [5], 0.021 OD450 nm. The binding result in test [3] is listed as “no binding (tested: 1 µg/mL)”.

B5: anti-PD-1 single-domain antibody clone 2D9, histidine-tagged, from E. coli (VHH)
VHH: QVQLVESGGGLVQPGGSLRLSCAASGSVFIIDVMAWYRQAPGKQRELVAQIINGDAKYYADSVKGRFTISRDNTKTTLYLQMNSLKPDDTAVYYCSAEQFNPYRDSTYFWGQGTQVTVSS
notes: as for B2
As for B5, the OD450 nm was 2.1 OD450 nm in test [2], 2.11 OD450 nm in test [4] and 0.019 OD450 nm in test [5]. Besides, the binding result in test [3] is “no binding (tested: 1 µg/mL)”.

B6: anti-PD1 single-domain antibody clone 1A9, displayed on recombinant phage (VHH, not shown: large carriers)
VHH: QVQLVESGGGLVQPGGSLNLSCVASGNVFIIDVMAWYRQAPGKQRELVAQIINGGATYYADSVKGRFTISRDDTKTTLNLQMNSLKPDDTAVYYCSAEKFNPYRDSTHFWGQGTQVTVSA
notes: as for B1
Regarding B6, the binding result in test [1] is given as “binds”.

B7: anti-PD-1 single-domain antibody clone 1A9, histidine-tagged, from E. coli (VHH)
VHH: QVQLVESGGGLVQPGGSLNLSCVASGNVFIIDVMAWYRQAPGKQRELVAQIINGGATYYADSVKGRFTISRDDTKTTLNLQMNSLKPDDTAVYYCSAEKFNPYRDSTHFWGQGTQVTVSA
notes: as for B2
For B7, the OD450 nm in test [2] is 2.02 OD450 nm; in test [4], 2.12 OD450 nm; in test [5], 0.035 OD450 nm. Moreover, in test [3], the binding result is given as “no binding (tested: 1 µg/mL)”.

B8: anti-PD1 single-domain antibody clone 1A4, displayed on recombinant phage (VHH, not shown: large carriers)
VHH: QVQLVESGGGLVQPGGSLNLSCVASGNVFIIDVMAWYRQAPGKQRELVAQIINGDAKYYVDSVKGRFTISRDNTKTTLYLQMNSLKPDDTAIYYCSAEKFNPYRDSTNFWGQGTQVTVSS
notes: as for B1
Turning to B8, the binding result in test [1] is on record as “binds”.

B9: anti-PD-1 single-domain antibody clone 1H1, histidine-tagged, from E. coli (VHH)
VHH: QVQLVESGGGLVQPGGSLNLSCVASGSVFIIDVMAWYRQAPGKQRELVAQIINGGASYYADSVKGRFTISRDNTKTTLFLQMNSLKPADTAVYYCNAEKFNPYRDSTNFWGQGTQVTVSS
notes: as for B2
For B9, the results for the OD450 nm in test [2], in test [4] and in test [5] were 2.02 OD450 nm, 2.17 OD450 nm and 0.031 OD450 nm, respectively. Besides, the binding result in test [3] was “no binding (tested: 1 µg/mL)”.

B10: anti-PD1 single-domain antibody clone 2D9, displayed on recombinant phage (VHH, not shown: large carriers)
VHH: QVQLVESGGGLVQPGGSLRLSCAASGSVFIIDVMAWYRQAPGKQRELVAQIINGDAKYYADSVKGRFTISRDNTKTTLYLQMNSLKPDDTAVYYCSAEQFNPYRDSTYFWGQGTQVTVSS
notes: as for B1
With B10, the binding result in test [1] is “binds”.

B11: anti-PD1 single-domain antibody clone 1H1, displayed on recombinant phage (VHH, not shown: large carriers)
VHH: QVQLVESGGGLVQPGGSLNLSCVASGSVFIIDVMAWYRQAPGKQRELVAQIINGGASYYADSVKGRFTISRDNTKTTLFLQMNSLKPADTAVYYCNAEKFNPYRDSTNFWGQGTQVTVSS
notes: as for B1
B11: in test [1], the binding result was “binds”.

B12: anti-PD1 single-domain antibody clone 2C4, displayed on recombinant phage (VHH, not shown: large carriers)
VHH: QVQLVESGGGLVRPGGSLRLSCAASGSVFIIDVMAWYRQAPGKQRELVAQIISGDHAYYADSVKGRFTISRDDTKTTLYLQMNSLKPDDTAVYYCSAEKFNPYRDSTYFWGQGTQVTVSS
notes: as for B1
Take B12: in test [1], the binding result was “binds”.
